Earlier results in patent publication US20070141059A1, “Use of cathepsin s inhibitors for treating an immune response caused by administration of a small molecule therapeutic or biologic” (AXYS Pharmaceuticals, Inc., priority 2003, published 2007).

Columns and labels:
[1] = patients taking heparin

For “OKT3: murine monoclonal antibody directed towards CD-3 domain of activated T-cells”, the “patients producing antibodies versus the therapy” value (in clinical trials) is given as 20-40%.

For “Remicade®: biologic; biological agent that induces the production of specific immunoglobulins”, the “patients generating neutralizing antibodies” value (patients taking the biologic) is given as 10%.

For heparin, the “patients experiencing heparin induced thrombocytopenia (HIT)” value [1] is given as roughly 3%.

B1: Betaseron®: biologic; biological agent that induces the production of specific immunoglobulins (protein, UniProt P01574 22-187, looked up, variant C17S)
Interferon beta: MSYNLLGFLQRSSNFQSQKLLWQLNGRLEYCLKDRMNFDIPEEIKQLQQFQKEDAALTIYEMLQNIFAIFRQDSSSTGWNETIVENLLANVYHQINHLKTVLEEKLEKEDFTRGKLMSSLHLKRYYGRILHYLKAKEYSHCAWTIVRVEILRNFYFINRLTGYLRN
modifications: non-glycosylated, E. coli-expressed
notes: biologic; biological agent that induces the production of specific immunoglobulins
In the case of B1, the “patients found to have serum-neutralizing activity” value (patients taking the biologic) is listed as 45%.
